B1: B-cell CLL/lymphoma 9 protein (Homo sapiens), O00512 (parent)
chain: MHSSNPKVRSSPSGNTQSSPKSKQEVMVRPPTVMSPSGNPQLDSKFSNQGKQGGSASQSQPSPCDSKSGGHTPKALPGPGGSMGLKNGAGNGAKGKGKRERSISADSFDQRDPGTPNDDSDIKECNSADHIKSQDSQHTPHSMTPSNATAPRSSTPSHGQTTATEPTPAQKTPAKVVYVFSTEMANKAAEAVLKGQVETIVSFHIQNISNNKTERSTAPLNTQISALRNDPKPLPQQPPAPANQDQNSSQNTRLQPTPPIPAPAPKPAAPPRPLDRESPGVENKLIPSVGSPASSTPLPPDGTGPNSTPNNRAVTPVSQGSNSSSADPKAPPPPPVSSGEPPTLGENPDGLSQEQLEHRERSLQTLRDIQRMLFPDEKEFTGAQSGGPQQNPGVLDGPQKKPEGPIQAMMAQSQSLGKGPGPRTDVGAPFGPQGHRDVPFSPDEMVPPSMNSQSGTIGPDHLDHMTPEQIAWLKLQQEFYEEKRRKQEQVVVQQCSLQDMMVHQHGPRGVVRGPPPPYQMTPSEGWAPGGTEPFSDGINMPHSLPPRGMAPHPNMPGSQMRLPGFAGMINSEMEGPNVPNPASRPGLSGVSWPDDVPKIPDGRNFPPGQGIFSGPGRGERFPNPQGLSEEMFQQQLAEKQLGLPPGMAMEGIRPSMEMNRMIPGSQRHMEPGNNPIFPRIPVEGPLSPSRGDFPKGIPPQMGPGRELEFGMVPSGMKGDVNLNVNMGSNSQMIPQKMREAGAGPEEMLKLRPGGSDMLPAQQKMVPLPFGEHPQQEYGMGPRPFLPMSQGPGSNSGLRNLREPIGPDQRTNSRLSHMPPLPLNPSSNPTSLNTAPPVQRGLGRKPLDISVAGSQVHSPGINPLKSPTMHQVQSPMLGSPSGNLKSPQTPSQLAGMLAGPAAAASIKSPPVLGSAAASPVHLKSPSLPAPSPGWTSSPKPPLQSPGIPPNHKAPLTMASPAMLGNVESGGPPPPTASQPASVNIPGSLPSSTPYTMPPEPTLSQNPLSIMMSRMSKFAMPSSTPLYHDAIKTVASSDDDSPPARSPNLPSMNNMPGMGINTQNPRISGPNPVVPMPTLSPMGMTQPLSHSNQMPSPNAVGPNIPPHGVPMGPGLMSHNPIMGHGSQEPPMVPQGRMGFPQGFPPVQSPPQQVPFPHNGPSGGQGSFPGGMGFPGEGPLGRPSNLPQSSADAALCKPGGPGGPDSFTVLGNSMPSVFTDPDLQEVIRPGATGIPEFDLSRIIPSEKPSQTLQYFPRGEVPGRKQPQGPGPGFSHMQGMMGEQAPRMGLALPGMGGPGPVGTPDIPLGTAPSMPGHNPMRPPAFLQQGMMGPHHRMMSPAQSTMPGQPTLMSNPAAAVGMIPGKDRGPAGLYTHPGPVGSPGMMMSMQGMMGPQQNIMIPPQMRPRGMAADVGMGGFSQGPGNPGNMMF

Variants of: B1
Details: with ctnb1_human CTNNB1, P35222
Sequence of ctnb1_human CTNNB1, P35222 (P35222 whole entry): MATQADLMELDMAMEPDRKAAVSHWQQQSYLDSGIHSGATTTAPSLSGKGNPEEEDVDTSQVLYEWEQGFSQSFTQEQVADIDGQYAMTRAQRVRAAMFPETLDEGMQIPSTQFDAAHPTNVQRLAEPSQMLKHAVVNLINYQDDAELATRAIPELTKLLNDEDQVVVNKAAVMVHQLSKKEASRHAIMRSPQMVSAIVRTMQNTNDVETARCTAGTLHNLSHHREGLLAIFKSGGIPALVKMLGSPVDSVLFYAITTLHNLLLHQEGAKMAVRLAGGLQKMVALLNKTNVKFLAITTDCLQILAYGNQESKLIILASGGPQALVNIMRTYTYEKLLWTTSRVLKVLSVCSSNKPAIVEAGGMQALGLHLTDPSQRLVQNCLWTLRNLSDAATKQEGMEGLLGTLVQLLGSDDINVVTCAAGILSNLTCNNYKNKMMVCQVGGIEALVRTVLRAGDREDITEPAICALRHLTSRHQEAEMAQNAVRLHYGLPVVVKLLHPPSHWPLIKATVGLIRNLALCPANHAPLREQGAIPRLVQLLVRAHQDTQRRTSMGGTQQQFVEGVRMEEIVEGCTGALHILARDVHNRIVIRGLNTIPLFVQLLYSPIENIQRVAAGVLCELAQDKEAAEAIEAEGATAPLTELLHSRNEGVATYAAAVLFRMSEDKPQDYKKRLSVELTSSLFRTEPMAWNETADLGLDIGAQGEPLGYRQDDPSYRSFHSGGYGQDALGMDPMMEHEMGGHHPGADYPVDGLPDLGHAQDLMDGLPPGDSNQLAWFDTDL

Effect of a mutation on the interaction, decreasing interaction:
R359A
H358A
L366A
I369A

Reference: IntAct's records for PubMed 17052462
